Values joined by “and” are separate entries in the source; they are usually repeats but may differ in a detail not shown here. Identical values can stand only once. Like-named read-outs stand apart in the source and are kept apart here. Marks after values point to notes of the source that are not given here.
How the values were obtained:
HIV-1 [1] = conditions: dose-dependent; treatment period of 10-14 days; cited from earlier work
[2] = in vivo; cited from earlier work
[3] = single administration of solution, oral, healthy male volunteers; cited from earlier work
[4] = First Phase 2b treatment substitution study, CD4 cell count and safety; conditions: for CD4 cell count: individual subjects
Source text: Efficacy assessments at each week included assessment of viral load and CD4 cells count. Safety assessments consisted of physical exam, lab, and adverse event assessments at each treatment and follow-up visit.
The Per Protocol (PP) population was defined as the set of subjects who meet the ITT population requirements, and were not associated with a major protocol violation. This population was identified before the database lock. The PP population will be the primary analysis population for the analysis of primary and secondary endpoints. […] This population will be used for the analysis of safety parameters.

HIV-1 [5] = experiment: Second Phase 2b extension treatment substitution study, PRO 140 monotherapy; assay type: in vivo, human
Protocol: As with the first TS study, only subjects with exclusive CCR5-tropic virus were to be enrolled. However, 6 out of 16 subjects were determined to have dual- or mixed-tropic (D/M) virus when screening blood samples were tested by HIV-1 Co-receptor Tropism by Proviral DNA method or Ultradeep Sequencing with Reflex (Quest Diagnostics), as a retrospective exploratory analysis.

HIV-1 [6] = conditions: based on pharmacodynamic data from prior SC and IV studies
Protocol: The maximal change in HIV-1 viral load from baseline was determined at any point 59 days after initiation of therapy. To allow approximate comparisons between the IV and SC doses, the overall AUC observed for repeat SC doses was conservatively estimated by multiplying the measured AUC0-7d by the number of doses administered. Viral load and AUC data were fit to an Emax equation: E=Emax×AUC/(AUC+AUC50).

HIV-1 [7] = system: HIV-1
Protocol: All potential study patients were screened and for entry and must be HIV positive with the type of virus, ‘R5’, that uses the coreceptor CCR5 for cell entry and infection.
The first phase 2b TS study, also noted above, was conducted based on the following protocol. The TS study was for the Human Immunodeficiency Virus Type-1 (HIV-1) Infection indication. The TS study involved forty patients, was 14 weeks long, and patients' viral loads were checked weekly. Patients enrolled in the study had undetectable viral load at day one of the study (viral load<50). […] Failure of a patient under study was determined to occur if their viral load (VL) was measured at >400 two times.
Patient enrollment was staggered in this study to facilitate adequate safety monitoring. A lead cohort included 12 subjects. Enrollment of additional 28 subjects was initiated after approval by the independent DSMB.
Subjects who met all eligibility criteria, as per data gathered from Screening Visit were eligible for treatment. […] The first treatment visit took place within 42 days of the screening visit. Eligible subjects received up to 14 treatments, given every week (±3 days) or until virologic failure, whichever occurred first. Visits during the treatment phase commenced on T1, i.e. the date of first treatment, with weekly visits (±3 days) thereafter.
Subjects who experienced virologic failure (defined as two consecutive HIV-1 RNA levels of ≥400 copies/ml separated by at least 3 days) at any time during the treatment phase underwent the virologic failure (VF) visit assessments and then exited the Treatment Phase to enter the follow-up phase of the study.
Subjects who experienced VF were followed up every 4 weeks until the viral suppression was achieved (i.e., plasma HIV-1 RNA levels to return back to <50 copies/mL).
Efficacy Analysis. The main analysis of primary and secondary endpoint will be conducted on the PP population and ITT population will be used for supportive analysis. […] VF is defined as two consecutive HIV-1 RNA levels of ≥400 copies/ml separated by at least 3 days. […] The statistical comparison will be conducted using Wilcoxon rank sum test and the median time to VF for this study will be compared to 30 days.

[8] = in vivo
CCR5 [9] = target: T1, CCR5 (Homo sapiens, UniProt P51681); conditions: cited from earlier work
R5 HIV-1 [10] = conditions: cited from earlier work
[11] = target: CCR5 on circulating lymphocytes (Homo sapiens, UniProt P51681); conditions: single IV injection; cited from earlier work
R5 HIV-1 [12] = conditions: cited from earlier work; remark: listed apart in the source
HIV-1 [13] = conditions: antiviral; cited from earlier work
HIV-1 [14] = conditions: repeated administration; cited from earlier work
HIV-1 [15] = conditions: cited from earlier work
HIV-1 [16] = conditions: cited from earlier work; remark: listed apart in the source
[17] = cited from earlier work
[18] = cited from earlier work; remark: listed apart in the source
[19] = cited from earlier work; for mean change in CD4+ cell counts from baseline: 5 mg/kg IV
HIV-1 [20] = conditions: cited from earlier work; remark: listed apart in the source
[21] = subjects treated with SC PRO 140; cited from earlier work
CCR5 [22] = target: T1, CCR5; parameters: endogenous in cells; conditions: for 29 days after treatment with both 5 and 10 mg/kg doses; cited from earlier work
[23] = interim, first cohort of 12 patients

T1 sequence (P51681 whole entry): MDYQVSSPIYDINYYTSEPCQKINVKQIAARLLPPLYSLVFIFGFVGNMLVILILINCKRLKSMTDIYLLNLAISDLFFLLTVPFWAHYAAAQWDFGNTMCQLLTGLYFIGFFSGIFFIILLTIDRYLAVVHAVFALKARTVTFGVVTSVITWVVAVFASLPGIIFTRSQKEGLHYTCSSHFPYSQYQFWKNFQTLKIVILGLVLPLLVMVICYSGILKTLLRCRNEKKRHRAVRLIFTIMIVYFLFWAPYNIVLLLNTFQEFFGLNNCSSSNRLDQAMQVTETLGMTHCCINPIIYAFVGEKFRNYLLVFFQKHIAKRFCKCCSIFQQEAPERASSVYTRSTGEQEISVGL
CCR5 on circulating lymphocytes, sequence (P51681 whole entry): as above

Cc1nnc(C(C)C)n1[C@H]1C[C@H]2CC[C@@H](C1)N2CC[C@H](NC(=O)C1CCC(F)(F)CC1)c1ccccc1 [UK-427,857]
mean reductions in HIV-1 RNA levels (HIV-1 [1]): about 1 log10
clinically significant changes in QTc intervals [2]: none of the above-identified agents induced clinically significant changes in QTc intervals

COC[C@@H](c1ccc(C(F)(F)F)cc1)N1CCN(C2(C)CCN(C(=O)c3c(C)ncnc3C)CC2)C[C@@H]1C [SCH-D]
mean reductions in HIV-1 RNA levels (HIV-1 [1]): about 1 log10
clinically significant changes in QTc intervals [2]: none of the above-identified agents induced clinically significant changes in QTc intervals

CCCCOCCOc1ccc(-c2ccc3c(c2)/C=C(/C(=O)Nc2ccc([S@@+]([O-])Cc4cncn4CCC)cc2)CCCN3CC(C)C)cc1 [TAK-652]
safety, tolerability [3]: safe and well tolerated

CCO/N=C(\c1ccc(Br)cc1)C1CCN(C2(C)CCN(C(=O)c3c(C)cc[n+]([O-])c3C)CC2)CC1 [SCH-C]
mean reductions in HIV-1 RNA levels (HIV-1 [1]): about 1 log10

CCCCN1C(=O)[C@@H]([C@H](O)C2CCCCC2)NC(=O)C12CCN(Cc1ccc(Oc3ccc(C(=O)O)cc3)cc1)CC2 [GW873140]
mean reductions in HIV-1 RNA levels (HIV-1 [1]): about 1 log10

B1: PRO 140: humanized IgG4,κ monoclonal antibody (mAb) to the C-C chemokine receptor type 5 (CCR5) (antibody, chains of the INN, looked up, V domains shown)
VH: EVQLVESGGGLVKPGGSLRLSCAASGYTFSNYWIGWVRQAPGKGLEWIGDIYPGGNYIRNNEKFKDKTTLSADTSKNTAYLQMNSLKTEDTAVYYCGSSFGSNYVFAWFTYWGQGTLVTVSS
VL: DIVMTQSPLSLPVTPGEPASISCRSSQRLLSSYGHTYLHWYLQKPGQSPQLLIYEVSNRFSGVPDRFSGSGSGTDFTLKISRVEAEDVGVYYCSQSTHVPLTFGQGTKVEIK
subjects reporting 'general disorders and administration site conditions' AEs ([4]; 13 of 40 subjects): 32.5%
subjects reporting 'infections and infestations' AEs ([4]; 14 of 40 subjects): 35%
reported AEs deemed either unlikely or not related to study treatment ([4]; 63/89 AEs): 70.7%
reported AEs deemed mild in nature ([4]; 72/89 AEs): 80.8%
subjects who experienced one or more adverse events ([4]; after at least one dose of PRO 140): 28 of 40 subjects
subjects who experienced an SAE ([4]; deemed not related to the study drug): 1 of 40 subjects
CD4 cell count ([4]; visit T3): 585 /mm^3 and 1043 /mm^3 and 760 /mm^3 and 962 /mm^3 and 667 /mm^3 and 755 /mm^3 and 1299 /mm^3 and 677 /mm^3 and 497 /mm^3 and 443 /mm^3 and 625 /mm^3 and 554 /mm^3 and 901 /mm^3 and 858 /mm^3 and 513 /mm^3
CD4 cell count ([4]; visit T5): 585 /mm^3 and 465 /mm^3 and 356 /mm^3 and 994 /mm^3 and 704 /mm^3 and 831 /mm^3 and 642 /mm^3 and 509 /mm^3 and 514 /mm^3 and 859 /mm^3 and 665 /mm^3 and 785 /mm^3 and 646 /mm^3
CD4 cell counts throughout the Treatment Phase ([4]; overall review, 40 subjects): maintained at stable levels
Proportion of Subjects with Virologic Failure within 24 weeks of PRO 140 Monotherapy (HIV-1 [5]; Total (N = 16)): 4/16
subjects experiencing virologic failure in the Extension study (HIV-1 [5]; four out of 16 subjects): 25%
Time on PRO 140 Monotherapy (HIV-1 [5]; individual subjects, interim, includes duration from PRO 140 Substitution study): 27 # of weeks (3×) and 28 # of weeks (2×) and 31 # of weeks and 22 # of weeks (5×) and 24 # of weeks and 29 # of weeks and 26 # of weeks
subjects with more than 20 weeks of PRO 140 monotherapy (HIV-1 [5]; interim, first TS study plus Extension): 10 out of 16 subjects and 14 out of 16 subjects
duration of complete viral-load suppression (HIV-1 [5]; ongoing extension study): ~11 months
trough concentrations at which maximum virologic suppression is expected (HIV-1 [6]): ≥ 5 μg/mL
enrolled subjects who completed 12 weeks of PRO 140 Monotherapy without experiencing virologic failure (HIV-1 [7]; 22 out of 40 enrolled subjects): 55%
Proportion of Subjects with Virologic Failure within 4 weeks of PRO 140 Monotherapy (HIV-1 [7]; CCR5 (N = 24)): 1/24
Proportion of Subjects with Virologic Failure within 12 weeks of PRO 140 Monotherapy (HIV-1 [7]; CCR5 (N = 24)): 8/24
Virologic Failure anytime during Treatment Phase (HIV-1 [7]; CCR5- plus Dual/Mixed-tropic Population N = 40): 18 n
Proportion of Subjects with Virologic Failure within 12 weeks of PRO 140 Monotherapy (HIV-1 [7]; Total (N = 40)): 18/40
Proportion of Subjects with Virologic Failure within 4 weeks of PRO 140 Monotherapy (HIV-1 [7]; Total (N = 40), 350 mg SC weekly): 1/40
Virologic Failure (HIV-1 [7]; individual subjects reported as Dual/Mixed): YES
patients who experienced virologic failure after 11 weeks of monotherapy (HIV-1 [7]; [23]): 7 patients
patients who had not experienced virologic failure after 10 weeks of monotherapy (HIV-1 [7]; [23]): five
patients who passed four weeks of monotherapy (no virologic failure) (HIV-1 [7]; [23]): 100%
patients with viral load suppression after 8 weeks of monotherapy (HIV-1 [7]; interim, first cohort, excluding two dual-mix virus patients (six of ten)): 60%
virologic failure subjects who achieved viral suppression to <400 and to 'Non Detectable' or <50 HIV-1 RNA copies/ml (HIV-1 [7]; once ART reinitiated, seventeen of eighteen subjects): 94.4%
PK profile [8]: favorable PK profile similar to that seen in prior clinical studies
PK samples, difference between subjects with and without virologic failure [8]: no significant difference observed
Block Natural Activity of CCR5 (CCR5 [9]): No
time mean viral load reductions of greater than 1 login were sustained post-treatment (R5 HIV-1 [10]; 5 mg/kg IV group): 2-3 weeks
development of viral resistance to PRO 140 (R5 HIV-1 [10]; after single IV dose, followed 58 days): no significant development of viral resistance to PRO 140 was observed
viral load reduction on average (R5 HIV-1 [10]; single 5 mg/kg IV dose): 1.83 login
duration of significant masking of CCR5 on circulating lymphocytes [11]: 2-4 weeks
persistence of antiviral effects after the final dose (R5 HIV-1 [12]; 324 mg SC doses): one week
mean nadir reduction in viral load (R5 HIV-1 [12]; 324 mg SC weekly for three weeks): 1.65 log10
IC90 (HIV-1 [13]): about 4 μg/ml
control of HIV-1 replication (HIV-1 [14]): prolonged control of HIV-1 replication without viral escape
Development of Resistance in Vitro (HIV-1 [15]): None at 40 weeks
Viral Cross-Resistance (HIV-1 [15]): Limited
drops in plasma HIV-1 RNA levels (HIV-1 [16]; repetitive weekly administration of 324 mg SC): approximately 1.5 log10
drops in plasma HIV-1 RNA levels (HIV-1 [16]; single subcutaneous doses of 324 mg): approximately 1.0 log10
Tolerability ([17]; in vivo): No Toxicity
time serum concentrations are maintained above the IC50 for clinical isolates of HIV-1 ([17]; single dose of 324 mg): at least 2 weeks
mean AUC from time zero to infinity (AUC∞) ([18]; 5 mg/kg single IV, serum): 278 mg·days/L
mean AUC from time zero to infinity (AUC∞) ([18]; in vivo, iv, 0.5 mg/kg): 11.1 mg·days/L
mean serum half-life ([18]; in vivo, iv, 5 mg/kg): 3.5 days
mean change in CD4+ cell counts from baseline ([19]; day 8): +129 cells/μL
mean change in CD4+ cell counts from baseline ([19]; day 15): +96 cells/μL
mean change in CD4+ cell counts from baseline ([19]; day 22): +83 cells/μL
effect on QTc interval or other electrocardiographic parameters ([19]; in vivo, iv): no significant effect
mean nadir reduction in viral load (HIV-1 [20]; single 5 mg/kg IV dose): 1.8 log10
mean nadir reduction in viral load (HIV-1 [20]; single 10 mg/kg IV dose): 1.8 log10
reduction in viral loads, all PRO 140-treated subjects (HIV-1 [20]; single IV infusion 5 or 10 mg/kg): more than 10 fold
mean max log10 reductions in viral load (HIV-1 [20]; treatment groups (5 and 10 mg/kg IV)): 1.83 log10
CD4+ cell counts [21]: trend towards increased CD4+ cell counts
receptor occupancy (reduction in the number of cells detected) (CCR5 [22]): > 85%
